We go through 34 sequences from the supplement of paper PMC10724198.

For this data set, the system named is Saccharomyces cerevisiae. The experiment in a line: protein stability index of tFT-peptide fusion (C-terminal peptide) (PSI (0-1 scale)); higher = more stable (slower turnover). The note with it: temperature: 30 C. Here is the method:
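MPS profiling in S. cerevisiae of the yeast C-terminome library: the last 12 aa of each annotated ORF are fused to the C-terminus of a sfGFP-mCherry timer, after a GGGS linker. Cells are FACS-sorted into 8 mCherry/sfGFP bins and deep-sequenced. PSI runs from 0 (unstable) to 1 (stable); wild type and das1Δ backgrounds, two technical replicates each.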

Where [1] appears, read: genetic background: das1 deletion.

± gives the standard deviation of the averaged measurements.

Take DPLYYVYCLHMP [NAT4 C-terminal 12 aa]: the protein stability index amounted to 0.6582 ± 0.0016 under setting [1] and 0.643 ± 0.0089 (genetic background: wild type).

On to DQPFYKSLFSRK [HXT1 C-terminal 12 aa], for which the protein stability index under setting [1] was 0.7117 ± 0.0036 and the protein stability index (genetic background: wild type) worked out at 0.685 ± 0.053.

Sequence DRDGCVNAVLLV [NSA2 C-terminal 12 aa] gave a protein stability index under setting [1] of 0.701 ± 0.012 and a protein stability index (genetic background: wild type) of 0.6768 ± 0.0054.

On to DRWLNRKALNKG [BUD21 C-terminal 12 aa], for which the protein stability index was determined as 0.695 ± 0.031 under setting [1] and 0.676 ± 0.021 (genetic background: wild type).

DSATLVNVHIKR [SPR3 C-terminal 12 aa] yielded a protein stability index under setting [1] of 0.7064 ± 0.0062 and a protein stability index (genetic background: wild type) of 0.7269 ± 0.0019.

Regarding “DSNTGGIIASIF [YKL104W-A C-terminal 12 aa]”, the protein stability index is, setting by setting: under setting [1], 0.702 ± 0.027; (genetic background: wild type) 0.696 ± 0.027.

As for DSSKYSLGNNSS [SUR1 C-terminal 12 aa], the protein stability index by setting is: under setting [1], 0.713 ± 0.025; (genetic background: wild type) 0.686 ± 0.016.

For the sequence DTFIPSTLQSVT [YNL089C C-terminal 12 aa], the protein stability index was 0.702 ± 0.026 under setting [1] and 0.678 ± 0.015 (genetic background: wild type).

Turning to DTVKILTELFNL [SEC53 C-terminal 12 aa], the protein stability index reads like this: under setting [1], 0.707 ± 0.011; (genetic background: wild type) 0.732 ± 0.062.

As for DTVPPEKLMKFV [RAX2 C-terminal 12 aa], the protein stability index under setting [1] came out at 0.7111 ± 0.0024 and the protein stability index (genetic background: wild type) was found to be 0.66 ± 0.027.

As to DVEELREQLENC [AIM7 C-terminal 12 aa], the protein stability index is, setting by setting: under setting [1], 0.692 ± 0.0025; (genetic background: wild type) 0.723 ± 0.018.

As to DVQGICLRNDKK [SLX4 C-terminal 12 aa], the protein stability index turned out to be 0.684 ± 0.011 under setting [1] and 0.651 ± 0.008 (genetic background: wild type).

As to DYDEEDPYEDPF [IKI1 C-terminal 12 aa], the protein stability index is, setting by setting: under setting [1], 0.731 ± 0.042; (genetic background: wild type) 0.6905 ± 0.0059.

Turning to EADMKTKLDISD [NBP2 C-terminal 12 aa], the protein stability index runs as follows: under setting [1], 0.695 ± 0.015; (genetic background: wild type) 0.696 ± 0.023.

For the sequence EANFWTAALEYE [THI21 C-terminal 12 aa], the protein stability index by setting is: under setting [1], 0.7334 ± 0.0016; (genetic background: wild type) 0.6857 ± 0.003.

Consider EANLKVLNGLEI [YPR148C C-terminal 12 aa], for which the protein stability index turned out to be 0.687 ± 0.024 under setting [1] and 0.667 ± 0.011 (genetic background: wild type).

Regarding EAQLSCNYEPLP [COS10 C-terminal 12 aa], the protein stability index runs as follows: under setting [1], 0.707 ± 0.021; (genetic background: wild type) 0.673 ± 0.0098.

As for ECAPVPPAVRSY [SDH9 C-terminal 12 aa], the protein stability index is, setting by setting: under setting [1], 0.683 ± 0.011; (genetic background: wild type) 0.6797 ± 0.0018.

As for ECYLITILWLHK [TDA2 C-terminal 12 aa], the protein stability index stood at 0.256 ± 0.031 under setting [1] and 0.289 ± 0.0072 (genetic background: wild type).

As to EDKEIVDGKVLK [TEF4 C-terminal 12 aa], the protein stability index by setting is: under setting [1], 0.663 ± 0.016; (genetic background: wild type) 0.674 ± 0.023.

Consider EDSHYGNAKKVT [FPS1 C-terminal 12 aa], for which the protein stability index reads like this: under setting [1], 0.708 ± 0.0097; (genetic background: wild type) 0.688 ± 0.011.

In the case of EDVQLALNKHMN [YAP1 C-terminal 12 aa], the protein stability index by setting is: under setting [1], 0.685 ± 0.01; (genetic background: wild type) 0.69 ± 0.0072.

EEESTTSENLHF [RSM25 C-terminal 12 aa]: the protein stability index runs as follows: under setting [1], 0.699 ± 0.0097; (genetic background: wild type) 0.69 ± 0.025.

With EELLNQPPEEQI [GPX1 C-terminal 12 aa], the protein stability index is 0.712 ± 0.027 under setting [1] and 0.766 ± 0.093 (genetic background: wild type).

Regarding EELRPDTLESEL [REC107 C-terminal 12 aa], the protein stability index was 0.683 ± 0.0093 under setting [1] and 0.6742 ± 0.0014 (genetic background: wild type).

As to EEMEEFKKLVMG [MIC19 C-terminal 12 aa], the protein stability index runs as follows: under setting [1], 0.7037 ± 0.0043; (genetic background: wild type) 0.6922 ± 0.00094.

For the sequence EEQRNHLKDLYG [SLU7 C-terminal 12 aa], the protein stability index by setting is: under setting [1], 0.6968 ± 0.0037; (genetic background: wild type) 0.702 ± 0.011.

Turning to EERKDALANNIK [CCS1 C-terminal 12 aa], the protein stability index is, setting by setting: under setting [1], 0.6794 ± 0.0017; (genetic background: wild type) 0.688 ± 0.07.

On to EEVETVSEHVKV [DPA10 C-terminal 12 aa], for which the protein stability index by setting is: under setting [1], 0.6781 ± 0.00078; (genetic background: wild type) 0.691 ± 0.038.

In the case of EFLTNSILTRRK [COQ1 C-terminal 12 aa], the protein stability index amounted to 0.721 ± 0.048 under setting [1] and 0.651 ± 0.065 (genetic background: wild type).

As to EFVVQSLRSRNQ [YFR018C C-terminal 12 aa], the protein stability index turned out to be 0.7231 ± 0.0049 under setting [1] and 0.703 ± 0.035 (genetic background: wild type).

In the case of EGEHEQVLENFQ [GUT1 C-terminal 12 aa], the protein stability index worked out at 0.702 ± 0.014 under setting [1] and 0.676 ± 0.032 (genetic background: wild type).

With EGFIAKVMCCLD [RFC5 C-terminal 12 aa], the protein stability index under setting [1] was 0.606 ± 0.0065 and the protein stability index (genetic background: wild type) amounted to 0.599 ± 0.021.

With EGWNSDNVYKLS [CYC2 C-terminal 12 aa], the protein stability index is 0.7213 ± 0.0026 under setting [1] and 0.598 ± 0.0034 (genetic background: wild type).
